Numbering of substitutions follows the chain as printed. In names and notes the source's numbering stands.

The record followed here is patent US20130101601A1 (ANAPTYSBIO, published 2013).

In assay [1] the target is T1, human βNGF (Nerve Growth Factor) (human, UniProt P01138 122-241, limits assumed).
T1 construct: In the FACS rounds it was used biotinylated, fluorochrome-labelled or fused to wasabi fluorescent protein; The construct used in the Biacore runs is not described; also called hβNGF
Briefly: Biacore and flow cytometry-based antigen-binding assays.

Assay [2] deals with T1, human βNGF (Nerve Growth Factor). Briefly: kinetic characterization (Biacore).
For assay [3] the target is unchanged. Briefly: Biacore, purified antibody captured at low density (Rmax<30). The text has this:
Mutations observed in both strategies not utilized by APE803 were recombined by overlap extension PCR in a combinatorial library, each HC/LC pair was expressed and characterized on Biacore utilizing direct capture of secreted antibodies.

T1 sequence (P01138 122-241 limits assumed): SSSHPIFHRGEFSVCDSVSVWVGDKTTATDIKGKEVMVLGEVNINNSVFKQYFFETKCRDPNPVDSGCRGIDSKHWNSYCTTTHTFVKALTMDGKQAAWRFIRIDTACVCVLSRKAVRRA

B1: APE391 (antibody, V domains shown)
VH: QVQLVQSGAEVKKPGSSVKVSCKASGGTFSNYAISWVRQAPGQGLEWMGGIIPIFGTANYAQKFQGRVTITADESTSTAYMELSSLRSEDTAVYYCARGPEYYDYVWGSYRYNYFDYWGQGTLVTV
VL: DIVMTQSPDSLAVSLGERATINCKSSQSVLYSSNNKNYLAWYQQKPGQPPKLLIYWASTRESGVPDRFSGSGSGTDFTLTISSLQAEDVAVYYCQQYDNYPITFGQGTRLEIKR
notes: Fully human IgG; also called HC/LC pair from SCC C10A
As to B1, the binding result in assay [1] is reported as “binds”.

B2: APE583 (antibody, V domains shown)
VH: B1 VH with L45F
VL: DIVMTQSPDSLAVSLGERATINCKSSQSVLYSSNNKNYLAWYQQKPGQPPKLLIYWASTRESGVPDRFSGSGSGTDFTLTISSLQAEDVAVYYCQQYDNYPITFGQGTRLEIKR
notes: APE391 with the HC mutation L45F
Consider B2, for which the binding result in assay [2] was “binds”.

B3: APE803 (antibody, V domains shown)
VH: QVQLVQSGAEVKKPGSSVKVSCKASGDTFSNYATGDTFSNYAISWVRQAPGQGFEWMGGIIPIFGTANYAQKFQGRVTITADESTSTAYMELSSLRSEDTAVYYCARGPEYYAYVWGSYRYNYFDYWGQGTLVTV
VL: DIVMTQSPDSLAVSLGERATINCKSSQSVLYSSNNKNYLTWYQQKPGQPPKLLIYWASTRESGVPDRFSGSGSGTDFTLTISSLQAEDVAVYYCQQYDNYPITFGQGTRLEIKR
notes: HC CDR3 mutation D100A in the context of the APE646 variant
Take B3: in assay [2], binding was characterised by a dissociation constant (Kd) of 0.76 nM and the “fold improvement in kon (against APE646)” value was found to be 100 fold.

B4: APE925 (antibody, V domains shown)
VH: B3 VH with S30N, G53R, G65D, S86N, R120S
VL: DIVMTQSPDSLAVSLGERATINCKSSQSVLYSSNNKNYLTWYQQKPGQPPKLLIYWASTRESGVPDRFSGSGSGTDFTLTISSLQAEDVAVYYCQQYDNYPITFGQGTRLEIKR
Take B4: in assay [3], binding was characterised by a dissociation constant (Kd) of 0.025 nM.
